Results: publication PMC5399293, “Hierarchical assembly of centriole subdistal appendages via centrosome binding proteins CCDC120 and CCDC68” (Nature Communications, 2017)

Target: T1, MBP-hNinein-N (1–480 aa) (human, UniProt Q8N4C6 1-480)
T1 construct: human Ninein residues 1-480; also called purified 1–480 aa of hNinein
T1 sequence (looked up): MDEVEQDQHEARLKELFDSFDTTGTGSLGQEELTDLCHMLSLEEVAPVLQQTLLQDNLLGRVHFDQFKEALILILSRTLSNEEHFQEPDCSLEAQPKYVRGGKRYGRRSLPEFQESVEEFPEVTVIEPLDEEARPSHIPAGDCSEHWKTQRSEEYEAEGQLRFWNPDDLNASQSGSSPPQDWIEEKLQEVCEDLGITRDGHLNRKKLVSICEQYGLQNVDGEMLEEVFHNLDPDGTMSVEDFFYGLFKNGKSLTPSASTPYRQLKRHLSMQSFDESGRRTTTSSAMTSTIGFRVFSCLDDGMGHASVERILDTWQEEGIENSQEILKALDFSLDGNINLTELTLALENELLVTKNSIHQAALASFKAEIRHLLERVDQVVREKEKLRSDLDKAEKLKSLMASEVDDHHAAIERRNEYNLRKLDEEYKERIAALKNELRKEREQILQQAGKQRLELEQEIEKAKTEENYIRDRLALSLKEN
Experiment: pull-down; in vitro binding: purified GST-CCDC120 (1–320 aa) incubated with amylose resin beads coated with MBP fusions, 4 °C; immunoblot with anti-GST
Settings: both partners purified

binding result: binds
B1: GST-tagged CCDC120 (1–320 aa) (domain or fragment, human, UniProt Q96HB5-1 1-320, looked up)
chain: MEVKGQLISSPTFNAPAALFGEAAPQVKSERLRGLLDRQRTLQEALSLKLQELRKVCLQEAELTGQLPPECPLEPGERPQLVRRRPPTARAYPPPHPNQAHHSLCPAEELALEALEREVSVQQQIAAAARRLALAPDLSTEQRRRRRQVQADALRRLHELEEQLRDVRARLGLPVLPLPQPLPLSTGSVITTQGVCLGMRLAQLSQEDVVLHSESSSLSESGASHDNEEPHGCFSLAERPSPPKAWDQLRAVSGGSPERRTPWKPPPSDLYGDLKSRRNSVASPTSPTRSLPRSASSFEGRSVPATPVLTRGAGPQLCKP
notes: human CCDC120 (NM_001271836.1) residues 1-320; also called GST-CCDC120 (1–320 aa); 1–320 aa of CCDC120
